We go through 16 sequences from a protein production outcome set (Wang et al. 2014).

A short description of the series: label from the status in PepcDB records.
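Further: failed if final PepcDB status was selected cloned or expressed and not failed if soluble or beyond.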

Take “MVNNDTLSGDVYTASEAKQVQNVSYGTIVNVRPVQIQGGDDSNVIGAIGGAVLGGFLGNTVGGGTGRSLATAAGAVAGGVTGQGVQSAMNKTQGVELEIRKDDGNTIMVVQKQGNTRFSPGQRVVLASNGSQVTVSPRLEHHHHHH”: the protein production entry is “failed”. Then “MVNPIATGILVLAALYFARSILMPLAFSLFVIALAWPIQMALQRRIPRLAALLITLLLVVLVIVIVGSAIVWGLGELSQWLFYNTGRLQAIYASWTDWLEGHGIAIVSPLGELFSISRLVGLTHSLVTRLNSVAGFAVLTFIFVMLGLLEAEDLQRRLRSSLAQPQGEMLLHIGREIAGKIRRFMVVRSLACILTGLVVWAFTLVAGLELASAWAAIAFALNYIPFIGPLMATIFPTLFAIAQSGSWQLALIVFVGLNVIQFAIGSYLEPFLTGASLAISPFAVMFAVFFWSFMWGVPGAFIGVPILIVVVTWCAHEQSTRWIATLLSGGRQST”, with “failed”. Then “MVNQPLVSIIIPAYRAENTIAFTVRSVLAQTYDHWQVAIGVDDQVDYLQLLAEQGINDPRLKQVFTGGIGSGEAIARNKAVSICDGDILANLDADDAFASDRLEKLVPLAEKYGVAIDNTGVYNSELVLYKQPFPQRQALNFATAADILSPRIPFFPVFQRQLLGDGWTKVPFAADVLFNLELLSRTEKVAIHPEPLYRYYKRDNSITQSANAFETAEKAYLTILSLLDEGALTLTDAIRQAARQEFSENLALNKVFRRYMEEGRCQNLEQFLDMTNNGQKIEFVSNLNLEHHHHHH”, with “not failed”; and “MVNTRTRMSAIVATLGLVGSLALATASADESRTSGSAAQIALTEVARAQNPTAGAAGPQDTVWIAERAGTVRVLGDDGLGEPVLDISDETTTDGERGLLGLAFDERFAHLYLSYTDLEGTSTVDEFAVQDGTVREDTRRTVLTQEQPESNHNGGAITFGPDGYLYIALGDGGGGGDPQGNGQKLDTLLGKLLRIDPQGGDPYAIPEDNPFADDPDARGEIWSYGLRNPWRFSFDAGSGDLLIGDVGQSDWEEIDWAPASSPGGENYGWSQMEGTHPFRGGTEPANHVPPIHEYDRTGLGCSVTGGYVYRGEAVPGLAGQYVYSDYCDGTLRSLEIEDGRVTGEHDLGVNGGEVVSFAQDGDGELYVLAIGGTVSRVDPA”, with “failed”. For the sequence “MVNVFYEEAGALKVGSILTDNTTSLQIESAHGKRSKIKAALVLLRFENPPMHGFMQQAQEKAADIDVNFLWECCEENREFTGQELAGDYFGHTPDPLETAAILILLSQNPIYFHKKGVGRFKAAPPEILQAALASREKKRLAEEKQAGYVQQLMAFELPDTFRPLLDDLLYKPDKNTIEWKALETACDATRLSVPRLLERCGAIPSTHDYHYNQFLYEHFPEGIDTDAYPADFHLLDPEDLPVAGVKAFSIDDATTTEIDDAFSVTPLNFGSFRIGIHIATPALGVAPHSLLDKFAAKRLSTVYLPGRKITMLPESVIQHFTLGEAHHRPVLSLYLEVADDFTVTRTFSRIETIEVSTNLRLDSLERQFNEITLRENQTDYPFAHELRLLWNFSCKMEKLRGKDQDINSEKIDYSFIIDQDRVSVYERRRGAPIDKVVSELMIFANAEWGKQLADAGYAGIYRSQGNGKVKMSLSPAPHQGLGVSQYAWSSSPMRRYVDLINQRQLIALVSGNPPPYTREDDTLLIAMRDFEMAYATYAEFQRGMERYWCLRWLLQENISTSGAIVIKENMIKLDRLPLIVRIPSLPELAPGTLVAVGVSQIDLIDRSLNASFLGKSEG”, the protein production entry was “failed”. Regarding “MVPLPRSMRVLHWLTVLCLVMAASLILLRAELEGRALRQWLLEGHRHFGLMVLLLFVLRVSLRLRLRALPPGPPSPLIMRLAAGGTHVAMYALMLALPLIGWSLSNAYGKTVYLFGITLPNLVAADEDLADTLGTWHLNAAWALLALVAVHIVAALVHHLVLRDGLLHRVLPGKHHR”, the protein production entry is on record as “failed”. Then “MVPRFATLGRIPKGVWVLGGVSLLMDVSSEMIHSLLPLFMATTLGASVIIIGLIEGLAEATALILKVFSGAISDYVGKRKGLALLGYGLGALSKPLFAIAPTAGVVFSARMIDRVGKGIRGAPRDALVADVTPPEIRGAAYGLRQALDTVGAFLGPLLAVLLMFIWANDFHAIFWVAVIPAVLSILLLGFGLQEPKSAIAHKRSNPLKRENLKKLSAAYWWVVAIGSIFTLARFSEAFLVLRAQQMEIPLYTIPLVMVAMNLVYSLTAYPFGKLSDSMSHSKLLQWGLLVLILADIVLALSGHWSTLLIGVALWGIHMGMTQGLLAAMVAHTAPPELRGTAFGMFNLMSGLALLLASTGAGVLWETFGAASTFYAGAIICVVTLIGMRVMPSAYRQD”, with “not failed”; and “MVPSASDAWRTALRDLRETLPERTVQNWLDPIQPLDLSTDEGSPTLTLQVPTPFGIQYLRSRFQRSIRQAVSEAVGEPTDVTYQVAPEEERPDEIATDSGSSGSAPDEPDASSSPQDRPSSAPSSDQAGRSSTSPRPSEPVSSSSPAGREAINQSPSPDASTSGGASSPTGPTTPRPSSPDVADVSDAGRTDDASAPSPPQTDAGSPDERSALYEQAKQHLRPEYTFDEFVEGDGNRLARSAAFAVAQEPGSTNYNPLLVYGGVGLGKTHLAQAVANYALEHNTAERVLYVSSDRFTSQFVQSVRENRIAAFSSYYRQADLLIVDDVQFFGEKEKTQEEFFHIFNDLHQNGKQIFLCADRPPAEIPGIEERLLSRFQWGLSADIQRPDLETRIAILQRKAARQDIAVSPDVLELIAQRIDSNVRQLEGALTRLTALVQLDDRTLDLDTARRFLREHTDEGADALNADDIIEQVAEYFRLEKGDLLSRSRKQTVAQARQIAMYLCRELTDESYDHIGSRFGGRDHSTVIHAYRKIEEDLESDTELQDDISSLQSNLQDRSLSSSL”, with “failed”; and “MVPSTFSRLKAARCLPVVLAALIFVGCGTHTPDQSTAYMQGTAQADSAFYLQQMQQSSDDTRINWQLLAIRALVKEGKTGQAVELFNQLPQELNDSQRREKTLLAVEIKLAQKDFAGAQNLLAKITPADLEQNQQARYWQAKIDASQGRPSIDLLRALIAQEPLLGAKEKQQNIDATWQALSSMTQEQANTLVINADENILQGWLDLQRVWFDNRNDPDMMKAGIADWQKRYPNNPGAKMLPTQLVNVKAFKPASTNKIALLLPLNGQAAVFGRTIQQGFEAAKNIGTQPVAAQVAAAPAADVAEQPQPQTADGVASPAQASVSDLTGDQPAAQPVPVSAPATSTAAVSAPANPSAELKIYDTSSQPLSQILSQVQQDGASIVVGPLLKNNVEELLKSNTPLNVLALNQPENIENRVNICYFALSPEDEARDAARHIRDQGKQAPLVLIPRSSLGDRVANAFAQEWQKLGGGTVLQQKFGSTSELRAGVNGGSGIALTGTPITPRATTDSGMTTNNPTLQTTPTDDQFTNNGGRVDAVYIVATPGEIAFIKPMIAMRNGSQSGATLYASSRSAQGTAGPDFRLEMEGLQYSEIPMLAGGNLPLMQQALSAVNNDYSLARMYAMGVDAWSLANHFSQMRQVQGFEINGNTGSLTANPDCVINRKLSWLQYQQGQVVPAS”, with “not failed”. For the sequence “MVQEEASCELAPREKKLSIRGAIVKLGNPGFPDASARSLPLNLERLRPGGGGCPQSGSQTLWCSSSLAECSHAEVTSSEGSPRTLGLRGESRDFPVISREGASKAGGGRSGRGQRLPRGSPAGLAGLWLLLLQIARLMARQRTVAGIGPGALLALRALLVAAHPQCLDFRPPFRPPQPLSFCAQYSAFGCCTAEQDAALARRFRALETRMDAGVWATCAGYALDLLCQECSPYAAHLYDAEDPATPLRTVPGLCEDYCLDMWQTCRGLFRHLSPDRELWALESNRAKLCRYLSLDDTDYCFPSLLVNENLNSNLGRVVADAKGCLQLCLEEVANGLRNPVAMVHAGDGSHRFFVAEQVGLVWTYLPDRSRLEKPFLNVSQAVLTSPWEGDERGFLGLAFHPRFPHPSKLYVYYSVGVGFREWIRISEFRISEDDENTVDHGSERIILEIEEPASNHNGGQLLFGDDGFLYIFTGDGGMAGDPFGKFGNAQNKSALLGKVLRIDVDRKERGLPYGIPLDNPFVDDPEARPEVYALGVRNMWRCSFDRGDPVSGTHRGRLFCGDVGQNKYEEVDLVERGRNYGWRAREGFECYDRKLCANASLDDVLPIFAYPHKLGKSVTGGYVYRGCEYPNLNGLYIFGDFMSGRLMSLRENPESGQWKYSEVCMGRGQTCAFPGLINNYYPYIISFAEDEAGELYFMSTGVPSATAARGVIYKVTDPSRRAPPGKCKIRPAQVKVKSHLIPFVPKEKFIRTSESTPRPTARAPTKAPRRRRPTAAPPAPTLRPTKPARPTRRPGARKGGGRRRGRPGTAVPEPQNGSVRLVRPSGLSPGRGRVEVFIGGRWGTVCDDGWDIKAAAVVCRQLGFAHAVRAAKRAEFGEGRALRILLDDVRCAGSERNLLECAHAGVGTHNCKHEEDAGVECSHEDPDL”, the protein production entry is “failed”. With “MVQFQNTLIKFHALSFKNANLIYNAKLNKTCYKENSNTIILRIKMLTQEDVLNALKTIIYPNFEKDIVSFGFVKNITLHDDQLGLLIEIPSSSEETSAILRENISKAMQEKGVKALNLDIKTPPKPQAPKPTTKNLAKNIKHVVMISSGKGGVGKSTTSVNLSIALANLNQKVGLLDADVYGPNIPRMMGLQSADVIMDPSGKKLIPLKAFGVSVMSMGLLYDEGQSLIWRGPMLMRAIEQMLSDIIWGDLDVLVVDMPPGTGDAQLTLAQAVPLSAGITVTTPQIVSLDDAKRSLDMFKKLHIPIAGIVENMGSFVCEHCKKESEIFGSNSMSELLEAYHTQILAKLPLEPKVRLGGDRGEPIVISHPNSVSAKIFEKMAQDLSAFLERVKKEKLADNKDIQPTQTHACSH”, the protein production result is listed as “failed”. Then “MVQHHNLYELSPMDTGWTICVMVLRINKKFLNPNAFELRFVLDDEWDTQIEATIRPRFSPFYFDRIEKNQWKTISTFLVRPNCEPIRTTPHEFRILFMDHTIITSSTS”, with “failed”. Consider “MVQNLSREQYGFVIWVVGNNSIPEEIRSLTTFLSWENLGTCLLLDPNAHVGSLCCSHRRVLLVEEFLGSYLSWGILDFDLFVQSNALNGGVIDMLRRFGVEVHISQPPTKTKKRSNANRKGFPDIELGKAMHSRALERNPSPMLLISSDSRLHTDVSHITSLAFEIILFHTKKAPKDLKDLATKRVLWFDGVSKLTEVRI”, for which the protein production entry is “failed”.

Regarding “MVQSLAKQVIHQAVEVNAQDIYIIPKGDCYELYMRIDDERRFIDVFEFNRMASLISHFKFVAGMNVGEKRRSQLGSCDYELSEGRLVSLRLSSVGDYRGQESLVIRILY”, the protein production entry is “failed”. For the sequence “MVQVPPPPPTGFADHASAAEDREAGDGPAPSIAEGLSAALFQSVVEALPVGTALLRDGVIVHANATLAGQIGETIDTLIGSPLTSYLTPADALAVQKVVEGAIALHGGVPVRRIAHIRHISGSERVYSLRFSPLDNGPHPLLVVITRDMTAQVAAENALRAAEGKYRAIFENAVEGIYQSTPDGTYLDVNPALARIYGYASPAELIAHFTDIASQLYVDGTKRGEFQRLMRETGEVRDFTAEVWRCDGHTIWITENARCVRGPDNEVLYYEGTVEDITAQRQSQETMRLLGKVFTSIAEGIVLLERDLTVRTVNPAFEAMTGLLRQDMEGRPARLFASGLHENDFLATVAAEVDRAGLWRGEIWGERREGPPYSGEMTVTAVRTRAGETTHYVAAITDITKRKRDEEHIRFQANFDMLTHLPNRHLIMDRLEQAMHQAQRTGRQVCVMFLDLDRFKQINDSYGHSAGDEVLKLTARRLRNCVRISDSVGRLGGDEFIVILSNVEDQHAGAYIAEKILYSLSEPFPIGGTEVFCIPSVGITYFPDHGETAPDLLRNADVAMYHAKQGGERRYAIFTPDMARRSLALLTMESDLRHALARDEFELHFQPKVRADLTLIGAEALIRWRHPEKGLINPGDFIPLAEESGLILPIGRWTLREACDRVMSWRAEGLTIPSVSVNVSPRQFQDQTLVETVRQILVETGLEPEALDLEITETVMTGDVEHAVGTLRALKDLGVTLSIDDFGTGYSSLNYLKTFPIDTLKIDQTFVRDVLHSGKDAAIVSTIIALARNLGFSVVAEGVEEIEQAEFLGSRDCQNFQGFLYSRPLPPAEFTTFLRTAKLETATPPDLVPSIAPGP”, the protein production entry is listed as “failed”. To “MVRANKRNEALRIESALLNKIAMLGTEKTAEAVGVDKSQISRWKRDWIPKFSMLLAVLEWGVVDDDMARLARQVAAILTNKKRPAATERSEQIQMEF” belongs “not failed”.
